The source of these data is patent US11572572B2, “A138T mutation-containing plant EPSPS mutant, and encoding gene and application thereof” (GEVOTO LLC, priority 2017, dated 2023).

Assay [1] relates to transgenic rice seedlings. The assay is described as follows: Glyphosate resistance of EPSPS mutants in transgenic rice sprayed with glyphosate (Example 8). The assay is classed as in vivo, rice (Nipponbare).
Assay [2] deals with double-knockout Escherichia coli (EDCE). Kind of assay: Growth of double-knockout E. coli (EDCE) transformed with Triticum aestivum EPSPS genes in glyphosate media (Example 7). The assay is classed as cell-based. The protocol:
An Escherichia coli strain transformed with the Triticum aestivum EPSPS mutant-encoding gene according to Example 4 was used as an experimental group.
An Escherichia coli strain transformed with a wild-type Triticum aestivum EPSPS-encoding gene (SEQ ID NO: 20, encoding wild-type Triticum aestivum EPSPS set forth in SEQ ID NO: 10 was used as Control Group 1.
The growth statuses of the transformed Escherichia coli strains in media containing different concentrations of glyphosate (0, 1, 20 mM) were detected to verify the glyphosate resistance of the Triticum aestivum EPSPS mutant-encoding gene and the encoded Triticum aestivum EPSPS mutant in Escherichia coli. Here, the Escherichia coli strain used was double-knockout Escherichia coli (Escherichia coli strain DH5a from which an EPSPS gene and a C-P Lyase gene were knocked out, named EDCE, which may be prepared by a method with reference to Chinese Patent Application. 2016103256926).

The mark [3] stands for this setting: 1X dose glyphosate (1,060 g/ha), day 10 after spraying.
Setting [4] is: 2X dose glyphosate (2,120 g/ha) on survivors of 1X, after another 10 days.
Where [5] appears, read: 5X dose glyphosate (5,300 g/ha) on survivors of 2X, after additional 10 days.
[6] abbreviates: 20X dose glyphosate (21,200 g/ha) on survivors of 5X, after further 10 days.

B1: T2: Triticum aestivum EPSPS mutant containing G113(96)A, P118(101)S, and A157(138)T (SEQ ID NO: 11), gene SEQ ID NO: 22; experimental group of Example 7 (protein)
chain: MATSVAAPAAPAGAEEVVLQPIREISGAVQLPGSKSLSNRILLLSALSEGTTVVDNLLNSEDVHYMLEALEALGLSVEADKVAKRAVVVGCGGRFPVEKDAKEEVKLFLGNAATAMRSLTAAVVAAGGNATYVLDGVPRMRERPIGDLVVGLQQLGTDVDCFLGTNCPPVRINGKGGLPGGKVKLSGSISSQYLSSLLMAAPLALEDVEIEIIDKLISVPYVEMTLKLMEHFGVTAEHSDSWDRFYIKGGQKYKSPGNAYVEGDASSASYFLAGAAITGGTVTVEGCGTTSLQGDVKFAEVLEMMGAKVTWTDTSVTVTGPPRQPFGRKHLKAVDVNMNKMPDVAMTLAVVALFADGPTAIRDVASWRVKETERMVAIRTELTKLGATVEEGPDYCIITPPEKLNITAIDTYDDHRMAMAFSLAACAEVPVTIRDPGCTRKTFPNYFDVLSTFVKN
modifications: Triticum aestivum EPSPS mutant with mutations G113(96)A, P118(101)S, and A157(138)T
Regarding B1, in assay [1] (setting [3]), the “% ++&+++ (percentage of moderately and highly glyphosate resistant plants in total plants observed)” value stood at 75.0%; the “plant number with resistance + (low glyphosate resistant)” value came to 2; the “plant number with resistance ++ (moderately glyphosate resistant)” value was found to be 4; the “plant number with resistance +++ (highly glyphosate resistant)” value (“plant number with resistance +++” below) is 20. In addition, in assay [1] (setting [4]), the “% ++&+++ (percentage of moderately and highly glyphosate resistant plants in total plants observed)” value was determined as 59.4%; the “plant number with resistance + (low glyphosate resistant)” value turned out to be 3; the “plant number with resistance ++ (moderately glyphosate resistant)” value came out at 2; the “plant number with resistance +++” value was found to be 17. For the same molecule, in assay [1] (setting [4]), the “plant number with resistance − (non-glyphosate resistant, withered or dead)” value amounted to 10. In assay [1] (setting [5]), the “% ++&+++ (percentage of moderately and highly glyphosate resistant plants in total plants observed)” value is recorded as 50.0%; the “plant number with resistance + (low glyphosate resistant)” value worked out at 5; the “plant number with resistance ++ (moderately glyphosate resistant)” value amounted to 14; the “plant number with resistance +++” value came out at 2. Moreover, the “plant number with resistance − (non-glyphosate resistant, withered or dead)” value in assay [1] (setting [5]) is on record as 11. In addition, in assay [1] (setting [6]), the “% ++&+++ (percentage of moderately and highly glyphosate resistant plants in total plants observed)” value was found to be 21.9%; the “plant number with resistance + (low glyphosate resistant)” value is recorded as 11; the “plant number with resistance ++ (moderately glyphosate resistant)” value was found to be 7; the “plant number with resistance +++” value amounted to 0. In addition, the “plant number with resistance − (non-glyphosate resistant, withered or dead)” value in assay [1] (setting [6]) is reported as 14. Moreover, the “level of glyphosate resistance of transformed rice seedlings compared with the mutant lacking the A138T mutation (R4 for R5, T1 for T2) (in words)” value in assay [1] (each of 1×, 2×, 5×, and 20× glyphosate doses) was “higher levels of glyphosate resistance”. In addition, the “glyphosate concentration of medium in which the E. coli strain was kept in a growing state” value in assay [2] is “up to 20 mM”.
